Patent US20170360911A1

Assays:
HLA-A*02:01 (human) = assay: T2-A24 MHC class I stabilization, flow cytometry, anti-HLA-A02 BB7.2-FITC, peptide 100 ug/mL; conditions: remark: other sources report otherwise

RGYVYQGL (modifications not checked) [VSV52-59 peptide] showed an MFI (solvent ratio) (ratio to solvent) (HLA-A*24:02 (human)) of 1.

Work on EADPTGHSY [MAGE-1161-169 peptide] yielded an MFI (solvent ratio) (ratio to solvent) (HLA-A*02:01 (human)) of 1.
